# Patent US9611465B2, “Pharmaceutical composition containing core factor involved in proliferation and differentiation of central nervous cell” (Celgene Corporation, priority 2009, dated 2017)
# Where a SMILES comes first, the peptide text is derived from it. The star is where a group is joined. Cbz = O=C(OCc1ccccc1)*
# B1: CRBN: protein called CRBN (cereblon) that forms a ubiquitin ligase complex; overexpressed in zebrafish embryos by injected or lipofected crbn RNA (protein, UniProt Q68EH9 1-431, looked up)
# Protein cereblon: MGNQLQLLPENEEEEEDDMETEDRDGEDVEKPSIINFDTSLPTSHAYLGSDMEEFHGRTLHDEDSVQNLPVLPHVALILIPGQTLPLQLFRPQEVSMFRNLVSQDRTFAVLAHSPDPSGTETKAEFGTTAEIYAFREEQEYGIETVKIKAVGRQRFRVHDIRTQADGIRQAKVQILPERILPDPLCALQFLPRLHTHSPQTKHTQTTPPQKRCSQNYRQKKLHCASMTSWPPWVYSLYDSKTLMSRVKKQLHEWDENLKDESLPTNPTDFSYRVAACLPIDDALRLQLLKIGSAIQRLRCELDIMDRCTSLCCKQCQDTEITSKNEIFSLSLYGPMAAYVNPHGYVHETLTVYKASNLNLIGRPSTLHSWFPGYAWTIAQCRTCSSHMGWKFSAVKKDLSPPRFWGLTRSALLPTIPQGEEGVEGSRLLCL
# How the values were obtained:
# [1] = tested on: mammalian cells expressing CRBN fused with a FLAG epitope tag; experiment: CRBN ubiquitin ligase activity using live cells (self-ubiquitination, immunoblotting); type: cell-based; conditions: MG132 added versus not added (FIG. 5)
# Procedure: This process was carried out basically in accordance with the method of Ohtake et al. MG132, which is a proteasome inhibitor, was applied to mammalian cells expressing CRBN fused with a FLAG epitope tag, and the cells were left still. Subsequently, the cells were disrupted, and from the resulting cell lysate solution, FLAG was purified and CRBN was extracted, and then immunoblotting was performed under similar, but stricter, conditions to the above, whereby the self-ubiquitination was detected and measured.
# [2] = target: T1, Ub/E1/E2 (GST fusion ubiquitin, Uba1, UbcH5b) (Homo sapiens, UniProt P0CG47+P22314+P62837); experiment: Ubiquitin ligase activity of CRBN using an in vitro reaction system; type: biochemical; conditions: added to Uba1, UbcH5b and GST fusion ubiquitin; FIG. 4, lane 2
# T1 construct: a recombinant GST fusion ubiquitin (Ub) protein
# T1 sequence (P22314 whole entry, other chains not shown, the tested form may be a part): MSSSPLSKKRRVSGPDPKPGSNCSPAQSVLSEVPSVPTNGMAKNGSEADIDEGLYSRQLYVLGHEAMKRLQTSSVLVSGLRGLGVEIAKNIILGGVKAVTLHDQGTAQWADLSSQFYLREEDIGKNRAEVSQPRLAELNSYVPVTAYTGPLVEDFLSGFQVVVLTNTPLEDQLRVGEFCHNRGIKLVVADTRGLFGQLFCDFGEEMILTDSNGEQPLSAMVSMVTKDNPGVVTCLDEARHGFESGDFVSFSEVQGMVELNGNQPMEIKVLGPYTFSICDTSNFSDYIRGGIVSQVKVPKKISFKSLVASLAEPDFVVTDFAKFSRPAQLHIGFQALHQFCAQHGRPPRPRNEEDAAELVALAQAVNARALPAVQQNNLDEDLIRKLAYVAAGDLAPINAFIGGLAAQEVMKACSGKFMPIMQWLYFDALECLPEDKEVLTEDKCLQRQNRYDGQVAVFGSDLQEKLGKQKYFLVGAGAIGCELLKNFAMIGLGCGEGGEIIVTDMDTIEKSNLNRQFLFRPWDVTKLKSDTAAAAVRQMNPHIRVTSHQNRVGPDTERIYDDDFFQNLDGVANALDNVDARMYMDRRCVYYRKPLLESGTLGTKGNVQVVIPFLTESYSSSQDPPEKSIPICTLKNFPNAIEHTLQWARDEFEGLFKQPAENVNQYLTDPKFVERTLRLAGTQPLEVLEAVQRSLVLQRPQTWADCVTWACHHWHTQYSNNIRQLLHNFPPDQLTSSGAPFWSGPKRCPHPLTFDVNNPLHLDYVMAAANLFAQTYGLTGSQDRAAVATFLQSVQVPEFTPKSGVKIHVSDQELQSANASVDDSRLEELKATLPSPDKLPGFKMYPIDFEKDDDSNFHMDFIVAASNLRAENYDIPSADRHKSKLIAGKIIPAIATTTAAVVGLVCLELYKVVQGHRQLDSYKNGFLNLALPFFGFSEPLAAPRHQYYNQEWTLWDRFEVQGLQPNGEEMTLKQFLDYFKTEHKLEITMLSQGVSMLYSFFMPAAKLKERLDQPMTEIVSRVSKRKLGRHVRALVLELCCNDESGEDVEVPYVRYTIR
# T1 sequence (P62837 whole entry, other chains not shown, the tested form may be a part): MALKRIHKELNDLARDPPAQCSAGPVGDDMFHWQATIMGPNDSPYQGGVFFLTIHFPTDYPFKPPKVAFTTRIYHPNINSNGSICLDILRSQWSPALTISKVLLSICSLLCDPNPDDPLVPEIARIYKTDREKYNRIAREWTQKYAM
# Procedure: This process was carried out basically in accordance with the method of Groisman et al. Firstly, CRBN and a binding protein (referred to as a CRBN complex) were purified from a cell lysate solution of mammalian cells expressing CRBN fused with a FLAG epitope tag using M2 FLAG agarose beads (SIGMA). Subsequently, the CRBN complex thus purified was mixed with an aqueous solution containing Uba1 (E1), UbcH5b (E2), and a recombinant GST fusion ubiquitin (Ub) protein, and after addition of ATP, the mixture was left to stand at 30 to 37° C. for two hours. Thereafter, the reaction was terminated by SDS, and self-ubiquitination and ubiquitination of the binding protein were visualized by polyacrylamide gel electrophoresis and immunoblotting, whereby the ubiquitin ligase activity was detected and measured.
# [3] = tested on: forebrain and midbrain of the zebrafish embryos; experiment: CRBN overexpression experiment in the forebrain and midbrain; type: in vivo
# Procedure: Adult fish were reared at a constant temperature of 28.5° C. and maintained and bred under a diurnal cycle of 14 hours of light-on and 10 hours of light-off. Fertilized eggs were secured by natural mating between males and females, and an aqueous solution of 600 ng/μl capped RNA synthesized in vitro was injected into the cytoplasm of the embryos before the first cleavage (1-cell stage) under conditions of a nitrogen gas pressure of 30 psi and a valve opening time of 30 msec (millisecond). Because the expression of all the genes except the lhx2 gene (i.e., the crbn gene, the six3.2 gene, and a gene encoding a protein composing an E3 ubiquitin ligase complex with crbn) has little impact on the embryonic development, even when systemically expressed, this method was used to obtain the first data.
# (§1) The method of lipofection was entirely in accordance with the technique developed and published by Ando et al. (Ando and Okamoto, Efficient transfection strategy for the spatiotemporal control of gene expression in zebrafish. Mar. Biotechnol. 8(3): 295-303, 2006).
# Antibody staining of early neurons of zebrafish was performed by the following technique. The embryos 24 to 28 hours after fertilization were fixed at 4° C. for 12 hours in a 4% paraformaldehyde/phosphate buffer (pH 8.0). […]
# [4] = tested on: glia cells and serotonin-producing cells of zebrafish; experiment: Fluorescent staining of glia cells and serotonin-producing cells; type: in vivo; conditions: CRBN-overexpressing individual
# Procedure: Two-day-old zebrafish were used (for glia cell staining and serotonin-producing cell staining, zebrafish 56 hours and 49 hours after fertilization were used, respectively). Zebrafish were fixed with 4% paraformaldehyde (PFA) and then washed with phosphate buffer (PBS), followed by treatment with 10 μg/ml protease K for partial digestion of the epidermis. After the digestion reaction, the zebrafish were washed with PBST (PBS+0.5% Triton X-100) for 20 minutes and then fixed with PFA again. The fixed zebrafish were washed with PBST at room temperature for one hour, followed by blocking using PBST+5% goat serum. The resulting specimens were reacted with a monoclonal anti-glia antibody (zrf-1/zrf-2) or a rabbit anti-serotonin antibody at 4° C. overnight (12 to 18 hours). Subsequently, the specimens were washed with PBST+5% goat serum for one hour at room temperature, and secondary antibody reaction was carried out by substituting the antibody for a goat anti-mouse IgG antibody (Cy-2 conjugate for glia cell staining) or a goat anti-rabbit IgG antibody (Cy-5 conjugate for serotonin-producing cell staining) at 4° C. overnight (12 to 18 hours). Subsequently, the specimens were washed with PBST at room temperature for one hour. After washing, PBST was replaced by 30%, 50%, 70% glycerol/PBS and the whole zebrafish were mounted on glass slides to obtain preparations. Fluorescence was observed under excitation wavelength of Cy-2 and Cy-5 and the distribution of the glia cells or the serotonin-producing cells was recorded. It is to be noted that glia cells were observed from the lateral side of zebrafish, while the serotonin-producing cells were photographed from the dorsal side in order to observe the distribution of the cells along the midline.
# [5] = tested on: zebrafish embryo brain; experiment: Determination of functional hierarchy of Lhx2 and CRBN (knockdown plus head-specific overexpression); type: in vivo
# Procedure: as §1
# An aqueous solution of a 25-mer antisense morpholino oligonucleotide (AMO, Gene Tools, LLC) corresponding to the vicinity of the translation initiation codon in the cDNA sequence of the gene to be knocked down (700 ng/μl, injection conditions were the same as those used for RNA) was injected into the embryos at the 1-cell stage. The sequence of AMO used for crbn gene knockdown is 5′ […] 3′ (SEQ ID NO:1), and that used for lhx2 gene knockdown is 5′ […] 3′ (SEQ ID NO:2).
# This process was carried out entirely in accordance with the technique of Ando et al. (H. Ando et al., Lhx2 mediates the activity of Six3 in zebrafish forebrain growth. Dev. Biol. 287(2): 456-468, 2005) except for the following procedure. […] When the effect of knocking down of A is rescued, whereas the effect of knocking down of B is not rescued by an inverted combination of A and B, within a 24-hour period after fertilization, it is determined that A lies functionally upstream of B. […]
molecule,measurement,setting,value
CC(C)C[C@@H](C=O)NC(=O)[C@H](CC(C)C)NC(=O)[C@H](CC(C)C)NC(=O)OCc1ccccc1 [MG132] (Cbz-Leu-Leu-Leu-aldehyde),bands representing the CRBN-containing proteins (self-ubiquitination),[1],a number of bands representing the CRBN-containing proteins were detected
"FH-CRBN complex: CRBN fused with a FLAG epitope tag and binding proteins, purified from mammalian cell lysate with M2 FLAG agarose beads",detection of ubiquitinated proteins by immunoblotting,[2],proteins that would not be detected in the absence of addition of CRBN were detected
B1,morphology of the neuron network in the brain,"[3]; CRBN overexpression (FIG. 2, right)",morphologically normal
same,enlargement of forebrain and midbrain in volume,"[3]; CRBN overexpression, shape retained (FIG. 2, right)",approximately 1.5 times
same,spatial distribution of glia cells and serotonin-producing cells,[4],normal spatial distribution was maintained
same,serotonin-producing cells,[4]; 49 hours after fertilization (FIG. 7),increased
same,glia cells,[4]; 56 hours after fertilization (FIG. 6),increased
same,brain size of embryo,"[5]; crbn gene-overexpressing embryo, compared to the normal embryo (FIG. 1, upper right)",brain enlargement
same,brain size of embryo,"[5]; lhx2 gene knocked down while crbn gene overexpressed (FIG. 1, lower right)",brain enlargement
